Legend:
Flag-HER3 (T355I) = target: T1, Flag-HER3 (T355I) (human, UniProt P21860 1-1342); assay: flow cytometry on HER2-overexpressing and HER3-stably expressing MDA-MB-231 cells, 0.1 to 100 nM
T1 construct: The entry already carries the mutation; Stably expressed in MDA-MB-231 cells, with or without HER2 overexpression; also called mutant-type HER3 (T355I)
Experimental: (§1) Wild-type and various kinds of mutant-type HER3-introduced MDA-MB-231 cells were cultured with RPMI1640 medium (available from Thermo Fisher […] K.K.) containing 10% FBS (available from Hyclone Laboratories, Inc). The cells were separated from the culture plate with TrypLE® Express Enzyme (available from Thermo Fisher […] K.K.), to measure the number of living cells by trypan blue treatment. The same number of living cells were added to a 96-well U-bottom plate, then the cells were precipitated by centrifugation, and the medium was replaced with Stain Buffer (available from Becton, Dickinson and Company). […] The cells were allowed to react on ice for 60 minutes and then washed with Stain Buffer. Further, 100 μL of Stain Buffer or a secondary antibody (Goat anti-Human IgG (H+L) Cross-Adsorbed Secondary Antibody, Alexa Fluor647, Thermo Fisher […] K.K., #A-21445) diluted to 10 μg/mL was added thereto, and the cells were suspended therein. After the cells were allowed to react in the dark on ice for 60 minutes and then washed with Stain Buffer. After the cells were suspended in 100 μL of Stain Buffer, an equal amount of 4% paraformaldehyde phosphate buffer (Wako Pure Chemical Industries, Ltd.) was added thereto, and the mixture was reacted in the dark on ice for 20 minutes. After washing with a Stain Buffer, fluorescence signals were measured using Attune NxT Flow Cytometer (available from Thermo Fisher […] K.K.), and the measurement results were analyzed using FlowJo software (Version 10.5.0, available from Becton, Dickinson and Company).

Flag-HER3 (V104L) = target: T2, Flag-HER3 (V104L) (human, UniProt P21860 1-1342); assay: as above
T2 construct: The entry already carries the mutation; Stably expressed in MDA-MB-231 cells, with or without HER2 overexpression; also called mutant-type HER3 (V104L)
Experimental: as §1

Flag-HER3 (V104M) = target: T3, Flag-HER3 (V104M) (human, UniProt P21860 1-1342); assay: as above
T3 construct: The entry already carries the mutation; Stably expressed in MDA-MB-231 cells, with or without HER2 overexpression; also called mutant-type HER3 (V104M)
Experimental: as §1

Flag-HER3 (A232V) = target: T4, Flag-HER3 (A232V) (human, UniProt P21860 1-1342); assay: as above
T4 construct: The entry already carries the mutation; Stably expressed in MDA-MB-231 cells, with or without HER2 overexpression; also called mutant-type HER3 (A232V)
Experimental: as §1

Flag-HER3 (P262H) = target: T5, Flag-HER3 (P262H) (human, UniProt P21860 1-1342); assay: as above
T5 construct: The entry already carries the mutation; Stably expressed in MDA-MB-231 cells, with or without HER2 overexpression; also called mutant-type HER3 (P262H)
Experimental: as §1

Flag-HER3 (G284R) = target: T6, Flag-HER3 (G284R) (human, UniProt P21860 1-1342); assay: as above
T6 construct: The entry already carries the mutation; Stably expressed in MDA-MB-231 cells, with or without HER2 overexpression; also called mutant-type HER3 (G284R)
Experimental: as §1

Flag-HER3 (D297Y) = target: T7, Flag-HER3 (D297Y) (human, UniProt P21860 1-1342); assay: as above
T7 construct: The entry already carries the mutation; Stably expressed in MDA-MB-231 cells, with or without HER2 overexpression; also called mutant-type HER3 (D297Y)
Experimental: as §1

Flag-HER3 (G325R) = target: T8, Flag-HER3 (G325R) (human, UniProt P21860 1-1342); assay: as above
T8 construct: The entry already carries the mutation; Stably expressed in MDA-MB-231 cells, with or without HER2 overexpression; also called mutant-type HER3 (G325R)
Experimental: as §1

Flag-HER3 (S846I) = target: T9, Flag-HER3 (S846I) (human, UniProt P21860 1-1342); assay: flow cytometry on HER3-stably expressing MDA-MB-231 cells without HER2 overexpression, 0.1 to 100 nM
T9 construct: The entry already carries the mutation; Stably expressed in MDA-MB-231 cells, with or without HER2 overexpression; also called mutant-type HER3 (S846I)
Experimental: as §1

Flag-HER3 (E928G) = target: T10, Flag-HER3 (E928G) (human, UniProt P21860 1-1342); assay: as above
T10 construct: The entry already carries the mutation; Stably expressed in MDA-MB-231 cells, with or without HER2 overexpression; also called mutant-type HER3 (E928G)
Experimental: as §1

Flag-HER3 (WT) = target: T11, Flag-HER3 (WT) (human, UniProt P21860 1-1342); assay: as above
T11 construct: Flag-tagged full-length HER3 stably expressed in MDA-MB-231 cells, with or without HER2 overexpression; also called wild-type HER3
Experimental: as §1

Flag-HER3 (Q809R) = target: T12, Flag-HER3 (Q809R) (human, UniProt P21860 1-1342); assay: flow cytometry on HER2-overexpressing and HER3-stably expressing MDA-MB-231 cells, same method as Example 3
T12 construct: The entry already carries the mutation; Stably expressed in HER2-overexpressing MDA-MB-231 cells; also called mutant-type HER3 (Q809R)
Experimental: as §1, with “After the cells were suspended in 100 μL of Stain Buffer, an equal amount of 4% paraformaldehyde phosphate buffer (Wako Pure Chemical Industries, Ltd.) was added thereto, and the mixture was reacted in the dark on ice for 20 minutes.” left out

Measured: binding result

B1: HER3-ADC (1) (antibody, human IgG1, kappa, V domains shown)
VH: QVQLQQWGAGLLKPSETLSLTCAVYGGSFSGYYWSWIRQPPGKGLEWIGEINHSGSTNYNPSLKSRVTISVETSKNQFSLKLSSVTAADTAVYYCARDKWTWYFDLWGRGTLVTVSS
VL: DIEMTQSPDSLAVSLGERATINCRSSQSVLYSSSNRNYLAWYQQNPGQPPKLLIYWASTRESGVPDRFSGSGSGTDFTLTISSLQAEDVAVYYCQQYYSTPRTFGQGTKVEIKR
modifications: drug-linker (exatecan derivative) conjugated via a thioether bond to cysteine thiols formed at interchain disulfide sites; drug-linker (exatecan derivative) conjugated via a thioether bond to cysteine thiols formed at interchain disulfide sites; average number of conjugated drug molecules per antibody molecule in the range of 7 to 8
notes: also called anti-HER3 antibody-drug conjugate; conjugate of HER3-Ab (1)
binds: all assays above

Reference: patent publication US20220072144A1 (published 2022)
